Data taken from patent US6252057.

Biological target: PP1C in 3T3-L1 adipocyte lysates (mouse (endogenous in 3T3-L1 adipocytes))
Assay: GST-PTG added to 3T3-L1 adipocyte lysates, fractionation, PP1 activity in the glycogen pellet

GST-PTG fusion protein
fold increase in the PP1 activity sedimenting with the glycogen pellet: 8 fold
